Experimental data: patent publication US20220175781A1, “CD40L COMPOSITIONS AND METHODS FOR TUNABLE REGULATION” (Obsidian Therapeutics, Inc., priority 2019, published 2022)
Substitutions are numbered along the chain they refer to.

How the values were obtained:
HEK293T cells [1] = assay: Soluble CD40L ELISA, transiently transfected HEK293T cells; format: cell-based, human
Protocol: Soluble CD40L (sCD40L) constructs OT-001672, OT-001686, OT-001673, OT-001674, OT-001677, and OT-001684 were transiently transfected into HEK293T cells. Cells were treated with one of the following ligands 1 μM Shield-1, 50 μM TMP, 1 μM Bazedoxifene (BZD) or vehicle control.
The pg/mL levels of soluble CD40L were measured by ELISA (Table 14). Recombinant soluble CD40L was used as the standard in the experiments.

Jurkat cells [2] = assay: CD40L shedding ELISA of supernatant, Jurkat cells with or without CD40-Fc receptor; format: cell-based; parameters: CD40L levels in supernatant: unit not given here; conditions: 6 hours
Protocol: Sheddases e.g. ADAM10/17 present in the tumor microenvironment can cleave CD40L thereby preventing the successful activation of CD40 by CD40L. […] OT-001669 which has a deletion of amino acids 1-13 of CD40L was designed to reduce internalization and OT-001668 which has a deletion of amino acids 110-116 of CD40L was designed to remove the ADAM10/17 sites. Jurkat cells stably expressing the full length construct OT-001661, OT-001669, or OT-001668 were cultured for 6 hours with 1.25 μg/ml recombinant human (h) or mouse (m) CD40-Fc receptor or left untreated and tested using an ELISA assay (Table 15).

T cells (CD4 and CD8) = assay: Cleavage resistant CD40L expression and TMP regulation in T cells; format: cell-based; conditions: for CD40L expression (percentage of CD40L expressing T cells): day 4
Protocol: T cells were transduced with OT-001668 and on day 4, the percentage of CD40L expressing T cells (within the both CD4 and CD8) subpopulations was calculated.
T cells were transduced with ecDHFR regulated construct OT-001671 that include a CD40L protein that was resistant to cleavage. On day 4 cells were treated with 10 μM TMP for 24 hours. […] In an independent experiment, T cells transduced with varying volumes of virus corresponding to OT-001671 were treated with increasing doses of TMP for 24 hours. In Table 41, 0.5 μL, 2 μL, and 10 μL indicate the different volumes of virus that were used.

HEK293T cells [3] = assay: Surface expression of CD40L trimerization mutants, transfected HEK293T cells (FACS); format: cell-based, human; conditions: transiently transfected HEK293T cells
Protocol: Mutations were engineered within CD40L payload to reduce the binding affinity of CD40L payload for the CD40L endogenously expressed by cells. Constructs OT-002078, OT-002079, OT-002080, OT-002081, OT-002082 were generated with the CD40L trimerization mutants. HEK293T cells were transiently transfected with the constructs and CD40L expression was measured by FACS.

HEK 293T cells = assay: hDHFR regulated CD40L surface expression, HEK 293T cells (flow cytometry); format: cell-based, human; conditions: 50 μM TMP 24 hours
Protocol: HEK 293T cells were transiently […] with hDHFR regulated constructs namely OT-001962, OT-001961, OT-001963 for 24 hours. Following transfection, cells were treated with 50 μM TMP for 24 hours and CD40L cell surface expression was measured using flow cytometry. […] CD40L expression in the absence of ligand was virtually undetectable.

Jurkat cells [4] = assay: DHFR regulated CD40L expression, transduced Jurkat cells (flow cytometry); format: cell-based; conditions: for SR: TMP (50 μM) versus Vehicle
Protocol: Jurkat cells were transduced with lentiviruses corresponding to OT-001662, OT-001962, OT-001961, OT-001963. 24 hours after transduction, cells were split and treated with DMSO or 50 μM TMP for another 24 hours until flow cytometry-based analysis. The results are shown in Table 37 where SR indicates stabilization ration.

[5] = independent experiment with similar setup

B1: OT-001677: Soluble CD40L (sCD40L) construct (protein)
chain: GSSLALSLTADQMVSALLDAEPPILYSEYDPTRPFSEASMMGLLTNLADRELVHMINWAKRVPGFVDLTLHDQVHLLECAWMEILMIGLVWRSMEHPGKLLFAPNLLLDRDQGKCVEGGVEIFDMLLATSSRFRMMNLQGEEFVCLKSIILLNSGVYTFLSSTLKSLEEKDHIHRVLDKITDTLIHLMAKAGLTLQQQHQRLAQLLLILSHIRHMSNKRMEHLYSMKCKNVVPLSDLLLEMLDAHRLGSMHMQKGDQNPQIAAHVISEASSKTTSVLQWAEKGYYTMSNNLVTLENGKQLTVKRQGLYYIYAQVTFCSNREASSQAPFIASLCLKSPGRFERILLRAANTHSSAKPCGQQSIHLGGVFELQPGASVFVNVTDPSQVSHGTGFTSFGLLKL
Stabilization Ratio (HEK293T cells [1]; [5]): 7.2
basal expression in the absence of ligand (HEK293T cells [1]; [5]): very low basal expression

B2: OT-001684: Soluble CD40L (sCD40L) construct (protein)
chain: B1 chain with T69A, D111N, N217S
Stabilization Ratio (HEK293T cells [1]; soluble CD40L +Ligand versus Vehicle, HEK293T cells): 1.0

B3: OT-001668: cleavage resistant CD40L construct, deletion of amino acids 110-116 of CD40L to remove the ADAM10/17 sites (protein)
chain: MHMIETYNQTSPRSAATGLPISMKIFMYLLTVFLITQMIGSALFAVYLHRRLDKIEDERNLHEDFVFMKTIQRCNTGERSLSLLNCEEIKSQFEGFVKDIMLNKEETKKENDQNPQIAAHVISEASSKTTSVLQWAEKGYYTMSNNLVTLENGKQLTVKRQGLYYIYAQVTFCSNREASSQAPFIASLCLKSPGRFERILLRAANTHSSAKPCGQQSIHLGGVFELQPGASVFVNVTDPSQVSHGTGFTSFGLLKL
CD40L levels in supernatant (Jurkat cells [2]; 1.25 μg/ml hCD40-Fc): 10
CD40L levels in supernatant (Jurkat cells [2]; 1.25 μg/ml mCD40-Fc): 10
shedding of CD40L (Jurkat cells [2]; untreated or with human or mouse CD40-Fc): no shedding
CD40L levels in supernatant (Jurkat cells [2]; Untreated): 10
CD40L expression (percentage of CD40L expressing T cells) (T cells (CD4 and CD8); CD4+): 95.5%
CD40L expression (percentage of CD40L expressing T cells) (T cells (CD4 and CD8); CD8+): 86.7%
expression of CD40L (T cells (CD4 and CD8); T cells, day 4, CD4 and CD8 subpopulations): High expression of CD40L

B4: OT-002078: construct with CD40L trimerization mutant (protein)
chain: MGGSGGGSGGGSGMIETYNQTSPRSAATGLPISMKIFMYLLTVFLITQMIGSALFAVYLHRRLDKIEDERNLHEDFVFMKTIQRCNTGERSLSLLNCEEIKSQFEGFVKDIMLNKEETKKENSFEMQKGDQNPQIAAHVISEASSKTTSVLQWAEKGYYTMSNNLVTLENGKQLTVKRQGLYYIYAQVTFCSNREASSQAPFIASLCLKSPGRFERILLRAANTHSSAKPCGQQSIGLFGVFELQPGASVFVNVTDPSQVSHGTGFTSFGLLKL
% CD40L positive (HEK293T cells [3]): 49.7%

B5: OT-002079: construct with CD40L trimerization mutant (protein)
chain: B4 chain with F239H
% CD40L positive (HEK293T cells [3]): 64.7%

B6: OT-002082: construct with CD40L trimerization mutant (protein)
chain: B4 chain with H138G, G237H, F239G, G240F
% CD40L positive (HEK293T cells [3]): 0.028%

B7: OT-002080: construct with CD40L trimerization mutant (protein)
chain: B4 chain with Y185G, G237H
% CD40L positive (HEK293T cells [3]): 0.11%

B8: OT-001961: hDHFR regulated CD40L construct (protein)
chain: MVGSLNCIVAVSQNMGIGKNGDLPWPPLRNEFRYFQRMTTTSSVEGKQNLVIMGKKTWFSIPEKNRPLKGRINLVLSRELKEPPQGAHFLSRSLDDALKLTEQPELANKVDMVWIVGGSSVIKEAMNHPGHLKLFVTRIMQDFESDTFFPEIDLEKYKLLPEYPGVLSDVQEEKGIKYKFEVYEKNDHMIETYNQTSPRSAATGLPISMKIFMYLLTVFLITQMIGSALFAVYLHRRLDKIEDERNLHEDFVFMKTIQRCNTGERSLSLLNCEEIKSQFEGFVKDIMLNKEETKKENSFEMQKGDQNPQIAAHVISEASSKTTSVLQWAEKGYYTMSNNLVTLENGKQLTVKRQGLYYIYAQVTFCSNREASSQAPFIASLCLKSPGRFERILLRAANTHSSAKPCGQQSIHLGGVFELQPGASVFVNVTDPSQVSHGTGFTSFGLLKL
% CD40L (HEK 293T cells): 14.6%
% CD40L expression (Jurkat cells [4]; TMP (50 μM)): 3.5%
SR (Jurkat cells [4]): 1.8
% CD40L expression (Jurkat cells [4]; Vehicle (DMSO)): 2%

B9: OT-001963: hDHFR regulated CD40L construct (protein)
chain: B8 chain with K55R, N65K
% CD40L (HEK 293T cells): 13.3%
% CD40L expression (Jurkat cells [4]; TMP (50 μM)): 20%
SR (Jurkat cells [4]): 10
% CD40L expression (Jurkat cells [4]; Vehicle (DMSO)): 2%
